Molecular target: T1, tumor necrosis factor receptor-associated factor 2 (TRAF2), endogenous, in human cardiac tissue, Q12933
T1 chain: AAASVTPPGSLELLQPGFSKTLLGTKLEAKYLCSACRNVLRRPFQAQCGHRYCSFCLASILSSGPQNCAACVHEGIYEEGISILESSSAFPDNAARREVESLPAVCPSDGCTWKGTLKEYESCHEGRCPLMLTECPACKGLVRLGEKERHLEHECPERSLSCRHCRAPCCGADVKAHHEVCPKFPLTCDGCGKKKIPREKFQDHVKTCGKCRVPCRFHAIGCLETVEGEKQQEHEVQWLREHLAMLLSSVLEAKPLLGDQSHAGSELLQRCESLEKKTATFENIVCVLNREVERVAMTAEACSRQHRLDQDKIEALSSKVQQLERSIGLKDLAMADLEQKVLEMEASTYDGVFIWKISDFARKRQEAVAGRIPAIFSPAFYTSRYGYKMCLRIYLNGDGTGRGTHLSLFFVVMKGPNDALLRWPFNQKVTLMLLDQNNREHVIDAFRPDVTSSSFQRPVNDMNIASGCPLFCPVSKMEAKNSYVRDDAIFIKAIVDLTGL

B1: recombinant GSTP1 (Assay Design, Ann Arbor, Mich.) (protein)
chain: PPYTVVYFPVRGRCAALRMLLADQGQSWKEEVVTVETWQEGSLKASCLYGQLPKFQDGDLTLYQSNTILRHLGRTLGLYGKDQQEAALVDMVNDGVEDLRCKYISLIYTNYEAGKDDYVKALPGQLKPFETLLSQNQGGKTFIVGDQISFADYNLLDLLLIHEVLAPGCLDAFPLLSAYVGRLSARPKLKAFLASPEYVNLPINGNGKQ
B1 was tested. Which “JNK1 and p38 activation (active JNK / active p38 protein, Western blot) in cardiac tissue cultures” value did it give?
Its value is “acts as a negative regulator of JNK1 and p38 activation”.

And the “TNF-α-induced JNK and p38 activation in DCM cardiac tissue cultures (Western blot)” value?
The value was “higher GSTP1 concentrations inhibit TNF-α-induced JNK and p38 activation in DCM”.

From US20120213761
